Experimental data taken from patent publication US10556936B2, “Immunogenic proteins and fragments thereof from allergenic mites” (ALK-ABELLÓ A/S, priority 2016, dated 2020).

What was measured:
Format in all cases: cell-based, human
[1] = test system: PBMC cells obtained from mite allergic patients and non-allergics; assay: Ex vivo stimulation of PBMC: cytokine production (IFN-gamma, IL-9, IL-10, IL-17, IL-31)
Summary of the method: (§1)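 Freshly isolated PBMC (5×10^6/ml) from mite-allergic patients or non-allergics cultured 5 days with test protein up to 10 ug/ml; IFN-gamma, IL-9, IL-10, IL-17, IL-31 in supernatants by multiplex immunoassay. T cell lines, raised 3 weeks on HDM extract, tested at 0.5 or 2 ug/ml protein in 72 h proliferation assay.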

[2] = test system: T cell lines obtained from HDM allergic individuals and non-allergics; assay: In vitro T cell proliferation test in T cell lines (Example 3); conditions: 0.5 or 2 ug/ml, 72 h; for % responders of in-vitro T cell proliferation test, Allergic: T cell lines from HDM allergic individuals (n=30); for % responders of in-vitro T cell proliferation test, Non-allergics: T cell lines from non-allergics (n=8)
Summary of the method: as §1

[3] = test system: basophils in whole blood from HDM allergic donors; assay: Basophil Activation Test (BAT); conditions: blood from HDM allergic individuals (n=14)
Summary of the method: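 Whole blood from HDM-allergic donors (n=14) was stimulated for 1 h with test proteins across a concentration range, e.g. 1, 10, 100 or 1000 ng/ml. Basophil surface activation markers were measured by flow cytometry, with Der p 1 and Der p 2 tested at the same concentrations as controls.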

Molecule	% HDM allergic individuals with cytokine production in ex-vivo T cell assay IL-5 [1]	% HDM allergic individuals with cytokine production in ex-vivo T cell assay IL-9 [1]	% HDM allergic individuals with cytokine production in ex-vivo T cell assay IL-10 [1]	% HDM allergic individuals with cytokine production in ex-vivo T cell assay IL-13 [1]	% HDM allergic individuals with cytokine production in ex-vivo T cell assay IL-17 [1]	% HDM allergic individuals with cytokine production in ex-vivo T cell assay IL-31 [1]	% HDM allergic individuals with cytokine production in ex-vivo T cell assay INF-g [1]	% non-allergic individuals with cytokine production in ex-vivo T cell assay IL-5 [1]	% non-allergic individuals with cytokine production in ex-vivo T cell assay IL-9 [1]	% non-allergic individuals with cytokine production in ex-vivo T cell assay IL-10 [1]	% non-allergic individuals with cytokine production in ex-vivo T cell assay IL-13 [1]	% non-allergic individuals with cytokine production in ex-vivo T cell assay IL-17 [1]	% non-allergic individuals with cytokine production in ex-vivo T cell assay IL-31 [1]	% non-allergic individuals with cytokine production in ex-vivo T cell assay INF-g [1]	% responders of in-vitro T cell proliferation test, Allergic [2]	% responders of in-vitro T cell proliferation test, Non-allergics [2]	# of individuals of 14 with positive BAT test ([3]; 1 ng/ml)	# of individuals of 14 with positive BAT test ([3]; 10 ng/ml)	# of individuals of 14 with positive BAT test ([3]; 100 ng/ml)	# of individuals of 14 with positive BAT test ([3]; 1000 ng/ml)
Derf2: major house dust mite allergen, group 2, Dermatophagoides farinae; control (protein, UniProt Q00855 18-146, looked up) Mite group 2 allergen Der f 2: DQVDVKDCANNEIKKVMVDGCHGSDPCIIHRGKPFTLEALFDANQNTKTAKIEIKASLDGLEIDVPGIDTNACHFMKCPLVKGQQYDIKYTWNVPKIAPKSENVVVTVKLIGDNGVLACAIATHGKIRD	63%	50%	81%	69%	13%	6%	6%	0%	0%	33%	0%	67%	0%	17%	67%	14%	13	13	13	13
Derp2: major house dust mite allergen, group 2, Dermatophagoides pteronyssinus; control (protein, UniProt P49278 18-146, looked up) Mite group 2 allergen Der p 2: DQVDVKDCANHEIKKVLVPGCHGSEPCIIHRGKPFQLEAVFEANQNTKTAKIEIKASIDGLEVDVPGIDPNACHYMKCPLVKGQQYDIKYTWNVPKIAPKSENVVVTVKVMGDDGVLACAIATHAKIRD	56%	31%	56%	50%	0%	6%	0%	0%	0%	17%	0%	0%	0%	0%	57%	0%	13	13	13	13
Derp1: major house dust mite allergen, group 1, Dermatophagoides pteronyssinus; control (protein, UniProt P08176 99-320, looked up) Peptidase 1: TNACSINGNAPAEIDLRQMRTVTPIRMQGGCGSCWAFSGVAATESAYLAYRNQSLDLAEQELVDCASQHGCHGDTIPRGIEYIQHNGVVQESYYRYVAREQSCRRPNAQRFGISNYCQIYPPNVNKIREALAQTHSAIAVIIGIKDLDAFRHYDGRTIIQRDNGYQPNYHAVNIVGYSNAQGVDYWIVRNSWDTNWGDNGYGYFAANIDLMMIEEYPYVVIL	50%	6%	50%	50%	6%	0%	0%	0%	0%	17%	0%	17%	0%	0%	73%	13%	7	10	10	10
Derf1: major house dust mite allergen, group 1, Dermatophagoides farinae; control (protein, UniProt P16311 99-321, looked up) Peptidase 1: TSACRINSVNVPSELDLRSLRTVTPIRMQGGCGSCWAFSGVAATESAYLAYRNTSLDLSEQELVDCASQHGCHGDTIPRGIEYIQQNGVVEERSYPYVAREQRCRRPNSQHYGISNYCQIYPPDVKQIREALTQTHTAIAVIIGIKDLRAFQHYDGRTIIQHDNGYQPNYHAVNIVGYGSTQGDDYWIVRNSWDTTWGDSGYGYFQAGNNLMMIEQYPYVVIM	75%	19%	50%	56%	6%	0%	0%	0%	0%	33%	0%	17%	0%	0%	70%	0%	10	10	10	10
